Assay results as given in patent US20250230240A1 (LAVA THERAPEUTICS N V, published 2025).
Positions count from the first letter of the chain named. Names and notes keep the numbering of the source.

How the values were obtained:
[1] = target: Vγ9Vδ2 T cell receptor on expanded primary human Vγ9Vδ2 T cells (human) (UniProt Q99603); assay: cell-based or functional assay
[2] = target: T1, recombinant purified CD123-Fc fusion protein (Bio-Techne/R&D Systems) (human, UniProt P26951 19-305, limits assumed); assay: BLI (Octet Red96e), CD123-Fc on anti-human IgG Fc capture sensors; measured twice, SD 0.7
T1 construct: Bought protein; also called recombinant CD123; not shown: Fc part of the bought fusion protein
T1 sequence (looked up): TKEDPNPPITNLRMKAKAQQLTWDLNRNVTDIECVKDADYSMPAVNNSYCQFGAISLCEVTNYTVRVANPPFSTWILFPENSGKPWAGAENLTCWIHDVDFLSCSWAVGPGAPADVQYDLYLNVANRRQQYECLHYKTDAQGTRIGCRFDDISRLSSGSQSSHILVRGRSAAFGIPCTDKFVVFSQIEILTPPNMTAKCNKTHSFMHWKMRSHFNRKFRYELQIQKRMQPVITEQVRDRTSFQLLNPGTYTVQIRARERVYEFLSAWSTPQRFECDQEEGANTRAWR
Description: Different sensors were then dipped in different concentrations of humanized 1D2-5C8var1 variants, starting at 50 nM and two-fold dilutions thereof; dilutions were made in 10x kinetic buffer (10×KB) provided by the supplier. From the obtained sensorgrams, the kinetic association- and dissociation rate constants were determined by curve fitting. The association- and dissociation rate constants, when fitting was possible, were used to calculate the affinity of the humanized 1D2-5C8var1 variants for binding to CD123. […] For reference, the non-humanized (parental) 1D2 was included in these experiments.

[3] = target: T1, recombinant purified CD123-Fc fusion …; assay: BLI (Octet Red96e), CD123-Fc on anti-human IgG Fc capture sensors; measured twice, SD 0.4
[4] = target: T1, recombinant purified CD123-Fc fusion …; assay: BLI (Octet Red96e), CD123-Fc on anti-human IgG Fc capture sensors; measured twice, SD 0.5
[5] = target: T1, recombinant purified CD123-Fc fusion …; assay: BLI (Octet Red96e), CD123-Fc on anti-human IgG Fc capture sensors; *low binding (>20 nM), one measurement only
[6] = target: T1, recombinant purified CD123-Fc fusion …; assay: BLI (Octet Red96e), CD123-Fc on anti-human IgG Fc capture sensors; measured twice, SD 4.3
[7] = target: T1, recombinant purified CD123-Fc fusion …; assay: BLI (Octet Red96e), CD123-Fc on anti-human IgG Fc capture sensors; measured twice, SD 1.5
[8] = target: T1, recombinant purified CD123-Fc fusion …; assay: BLI (Octet Red96e), CD123-Fc on anti-human IgG Fc capture sensors; measured twice, SD 7.5
[9] = target: Vγ9Vδ2 T cell receptor on expanded primary human Vγ9Vδ2 T cells (human), Q99603; assay: cell-based or functional assay
Vγ9Vδ2 T cell receptor on expanded primary human Vγ9Vδ2 T cells (human), Q99603, sequence (Q99603 21-122, stated change not applied, chain 1 of 2): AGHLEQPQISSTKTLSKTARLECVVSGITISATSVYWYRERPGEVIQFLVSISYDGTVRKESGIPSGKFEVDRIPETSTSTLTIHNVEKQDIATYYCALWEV
Vγ9Vδ2 T cell receptor on expanded primary human Vγ9Vδ2 T cells (human), Q99603, sequence (A0JD36 20-115, stated change not applied, chain 2 of 2, further chain): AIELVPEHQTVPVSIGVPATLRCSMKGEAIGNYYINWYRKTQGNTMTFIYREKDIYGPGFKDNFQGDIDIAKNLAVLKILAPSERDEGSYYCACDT

[10] = target: Recombinant human Vγ9Vδ2-Fc fusion protein (human) (UniProt Q99603); assay: BLI (Octet RED96), Vγ9Vδ2-Fc captured on anti-human Fc sensors, VHH as analyte, 1:1 fit; mean of at least three measurements +/- SD
[11] = target: Recombinant human Vγ9Vδ2-Fc fusion protein (human) (UniProt Q99603); assay: BLI (Octet), single VHH on recombinant Vγ9Vδ2 TCR protein
[12] = target: Recombinant human Vγ9Vδ2-Fc fusion protein (human) (UniProt Q99603); assay: BLI (Octet), single VHH on recombinant Vγ9Vδ2 TCR

Vγ9Vδ2 T cell receptor on expanded primary human Vγ9Vδ2 T cells (human), sequence (Q99603 21-122, stated change not applied, chain 1 of 2): as the sequence (Q99603 21-122, stated change not applied, chain 1 of 2) above
Vγ9Vδ2 T cell receptor on expanded primary human Vγ9Vδ2 T cells (human), sequence (A0JD36 20-115, stated change not applied, chain 2 of 2, further chain): as the sequence (A0JD36 20-115, stated change not applied, chain 2 of 2, further chain) above

Molecule “bispecific VHH 7D12-5C8 (non-humanized) (bispecific antibody)” has an EC50 cytotoxicity (A431 tumour cell kill, 24 h) [1] of 0.009 nM and an EC50 degranulation (CD107A+ Vγ9Vδ2 T cells, 4 h, A431 target cells) [1] of 0.01 nM.

B1: SEQ ID NO 1 (Table 12): non-humanized (parental) anti-CD123 VHH 1D2 (VHH)
VHH: EVQLVESGGGLVQAGGSLRLSCAASGRTASSYVMGWFRQAPGKEREFVAVINWNGDSTYYTDSVKGRFAISRDNAKNTVYLQMNSLKPEDTAVYYCAADTRREWYRDGYWGPPARYEYDYRGQGTQVTVSS
notes: also called parental 1D2
B1 showed a Kd [2] of 3.1 nM.

B2: SEQ ID NO 26 (Table 12): humanized 1D2 variant as bispecific VHH with 5C8var1 (bispecific antibody)
chain: EVQLVESGGGLVQPGGSLRLSCAASGRTASSYVMGWFRQAPGKEREFVSVINWNGDSTYYADSVKGRFTISRDNSKNTLYLQMNSLRAEDTAVYYCAADTRREWYRDGYWGPPARYEYDYRGQGTQVTVSSGGGGSEVQLLESGGGSVQPGGSLRLSCAASGRPFSNYAMSWFRQAPGKEREFVSAISWSGGSTSYADSVKGRFTISRDNSKNTLYLQMNSLRAEDTAVYYCAAQFSGADYGFGRLGIRGYEYDYWGQGTQVTVSS
With B2 the Kd [3] was 7.2 nM.

B3: SEQ ID NO 34 (Table 12): humanized 1D2 variant as bispecific VHH with 5C8var1 (bispecific antibody)
chain: B2 chain with P14A, F47W, S49A, A61T, T69A, S75A, L79V
Work on B3 yielded a Kd [4] of 2.6 nM.

B4: SEQ ID NO 33 (Table 12): humanized 1D2 variant as bispecific VHH with 5C8var1 (bispecific antibody)
chain: B2 chain with G35S, E44G, R45L, F47W, S49A, L79V, Q126L
In the case of B4, the Kd [5] is reported as 44.1 nM.

B5: SEQ ID NO 28 (Table 12): humanized 1D2 variant as bispecific VHH with 5C8var1 (bispecific antibody)
chain: B2 chain with G35S, F47W, S49A, L79V, Q126L
With B5 the Kd [6] was 14.9 nM.

B6: SEQ ID NO 30 (Table 12): humanized 1D2 variant as bispecific VHH with 5C8var1 (bispecific antibody)
chain: B2 chain with G35S, S49A, L79V, Q126L
In the case of B6, the Kd [7] is reported as 7.7 nM.

B7: SEQ ID NO 27 (Table 12): humanized 1D2 variant as bispecific VHH with 5C8var1 (bispecific antibody)
chain: B2 chain with F37V, F47W, Q126L
Molecule B7 has a Kd [5] of 24.5 nM.

B8: SEQ ID NO 31 (Table 12): humanized 1D2 variant as bispecific VHH with 5C8var1 (bispecific antibody)
chain: B2 chain with F37V, E44G, R45L, F47W, Q126L
B8 showed a Kd [5] of 29.1 nM.

B9: SEQ ID NO 29 (Table 12): humanized 1D2 variant as bispecific VHH with 5C8var1 (bispecific antibody)
chain: B2 chain with L11V, G35S, F47W, S49A, Q126T
Work on B9 yielded a Kd [8] of 20 nM.

B10: bispecific VHH 7D12var8-5C8var1-Y105F (bispecific antibody)
chain: EVQLVESGGGSVQPGGSLRLSCAASGRTSRSYGMGWFRQAPGKEREFVSGISWRGDSTGYADSVKGRFTISRDNAKNTVDLQMNSLRAEDTAVYYCAAAAGSAWYGTLYEYDYWGQGTLVTVSSGGGGSEVQLLESGGGSVQPGGSLRLSCAASGRPFSNYAMSWFRQAPGKEREFVSAISWSGGSTSYADSVKGRFTISRDNSKNTLYLQMNSLRAEDTAVYYCAAQFSGADFGFGRLGIRGYEYDYWGQGTQVTVSS
Work on B10 yielded an EC50 cytotoxicity (A431 tumour cell kill, 24 h) [9] of 0.0025 nM and an EC50 degranulation (CD107A+ Vγ9Vδ2 T cells, 4 h, A431 target cells) [9] of 0.011 nM.

B11: VHH 5C8var1 (VHH)
VHH: EVQLLESGGGSVQPGGSLRLSCAASGRPFSNYAMSWFRQAPGKEREFVSAISWSGGSTSYADSVKGRFTISRDNSKNTLYLQMNSLRAEDTAVYYCAAQFSGADYGFGRLGIRGYEYDYWGQGTQVTVSS
modifications: Y105 partly sulfated (as found for 5C8 and for 1D12var5-5C8var1)
Work on B11 yielded a Kd [10] of 0.81 nM.

B12: VHH 5C8var1-Y105F/R109A (VHH)
VHH: B11 VHH with Y105F, R109A
Molecule B12 has a Kd [11] of 1.2 nM.

B13: VHH 5C8var1-Y105S (VHH)
VHH: B11 VHH with Y105S
Work on B13 yielded a Kd [10] of 1.59 nM.

B14: VHH 5C8var1-Y105F/R109K (VHH)
VHH: B11 VHH with Y105F, R109K
B14 showed a Kd [11] of 0.82 nM.

B15: VHH 5C8var1-Y105F (VHH)
VHH: B11 VHH with Y105F
In the case of B15, the Kd [10] is reported as 0.78 nM and the Kd [11] is reported as 0.74 nM.

B16: VHH 5C8var1-Y105F/G108A (VHH)
VHH: B11 VHH with Y105F, G108A
Molecule B16 has a fold reduction of affinity against 5C8var1-Y105F [12] of 10 fold and a Kd [11] of 9.2 nM.
